Laboratory results: publication PMC8902820

B1: Ociperlimab (BGB-A1217), humanized IgG1 anti-human TIGIT antibody with wild-type IgG1 Fc (antibody, V domains shown)
VH: EVQLVESGGGLVQPGGSLRLSCAASGFTFSDYYMYWVRQAPGKGLEWVAYITKGGGSTYYPDSVKGRFTISRDNAKNTLYLQMNSLRAEDTAVYYCARQTNYDFTMDYWGQGTLVTVSS
VL: EIVMTQSPATLSVSPGERATLSCKASQDVGTSVAWYQQKPGQAPRLLIYWASARHTGIPARFSGSGSGTEFTLTISSLQSEDFAVYYCQQYSSYPLTFGGGTKVEIK

What was measured:
[1] = target: FcγRIIA H131 (SPR assay) (UniProt P12318); test: SPR; FcγRIIA, FcγRIIB, FcγRIIIA; KD determined by the analyte concentration at which half of the ligands are occupied at equilibrium
[2] = target: FcγRIIB (SPR assay) (UniProt P31994); test: as above
[3] = target: FcγRI (SPR assay) (UniProt P12314); test: SPR; FcγRI; KD calculated from the ratio of the kinetic constants (KD = koff/kon)
[4] = target: FcγRIIA R131 (SPR assay); test: SPR; FcγRIIA, FcγRIIB, FcγRIIIA; KD determined by the analyte concentration at which half of the ligands are occupied at equilibrium
[5] = target: FcγRIIIA F158 (UniProt P08637); test: as above
[6] = target: FcγRIIIA V158; test: as above

UniProt P31994, sequence (P31994 43-310): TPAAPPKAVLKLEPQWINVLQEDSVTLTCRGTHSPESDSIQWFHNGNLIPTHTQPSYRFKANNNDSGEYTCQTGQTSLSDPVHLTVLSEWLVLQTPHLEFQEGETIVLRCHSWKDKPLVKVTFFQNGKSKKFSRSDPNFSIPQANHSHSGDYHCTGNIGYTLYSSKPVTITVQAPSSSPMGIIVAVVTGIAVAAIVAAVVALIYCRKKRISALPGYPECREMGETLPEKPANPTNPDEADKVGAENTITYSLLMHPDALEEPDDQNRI
UniProt P12318, sequence (P12318 34-317): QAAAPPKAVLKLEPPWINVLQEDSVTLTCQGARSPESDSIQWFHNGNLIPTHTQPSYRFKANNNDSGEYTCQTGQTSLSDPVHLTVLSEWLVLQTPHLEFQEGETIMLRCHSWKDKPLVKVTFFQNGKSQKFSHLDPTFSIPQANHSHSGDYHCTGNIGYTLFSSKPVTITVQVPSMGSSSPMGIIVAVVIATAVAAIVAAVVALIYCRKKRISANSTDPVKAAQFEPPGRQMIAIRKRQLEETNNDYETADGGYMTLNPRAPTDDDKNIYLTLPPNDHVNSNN
UniProt P12314, sequence (P12314 16-374): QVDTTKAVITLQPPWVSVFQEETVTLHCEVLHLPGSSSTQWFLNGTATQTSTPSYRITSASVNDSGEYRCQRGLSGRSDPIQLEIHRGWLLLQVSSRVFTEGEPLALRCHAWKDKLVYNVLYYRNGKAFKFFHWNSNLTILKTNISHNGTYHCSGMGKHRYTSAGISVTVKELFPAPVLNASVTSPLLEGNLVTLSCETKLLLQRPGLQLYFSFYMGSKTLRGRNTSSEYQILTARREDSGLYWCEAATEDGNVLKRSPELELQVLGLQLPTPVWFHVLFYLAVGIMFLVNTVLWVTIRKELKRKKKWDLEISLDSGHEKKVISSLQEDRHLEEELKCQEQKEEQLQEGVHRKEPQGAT
UniProt P08637, sequence (P08637 17-254): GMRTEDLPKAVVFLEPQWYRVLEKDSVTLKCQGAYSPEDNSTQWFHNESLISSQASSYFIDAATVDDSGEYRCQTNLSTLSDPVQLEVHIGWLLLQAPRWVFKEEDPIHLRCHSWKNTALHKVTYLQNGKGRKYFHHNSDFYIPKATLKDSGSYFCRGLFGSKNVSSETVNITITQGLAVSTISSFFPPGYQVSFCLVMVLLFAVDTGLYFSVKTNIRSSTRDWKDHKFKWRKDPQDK

| Molecule | Kd [1] [nM] | Kd [2] [nM] | Kd [3] [nM] | Kd [4] [nM] | Kd [5] [nM] | Kd [6] [nM] |
| --- | --- | --- | --- | --- | --- | --- |
| Ociperlimab (BGB-A1217), humanized IgG1 anti-human TIGIT antibody with wild-type IgG1 Fc | 965 | 2840 |  |  |  |  |
| B1 |  |  | 0.0406 | 1020 | 2180 | 555 |
